The assay addresses human placental alkaline phosphatase (hPLAP) (human) (UniProt P05187). As to the kind of experiment: ELISA plate with bound antigen, washed with copious amounts of 50 mM DEA.

Some results are limits rather than exact numbers.

In turn, single-chain H17E2 antibody (scFv) came in with a percent washed off with 50 mM DEA above 90%.
H17-BSRNaseKDEL registered a percent washed off with 50 mM DEA of 40%.
The figure for H17-Link-BSRNaseKDEL is 40%; for H17-BSRNase it is 40%.

Source of the values: patent US5973116.
